Values joined by “and” are separate entries in the source; they are usually repeats but may differ in a detail not shown here. Identical values can stand only once.
What was measured:
[1] = biological target: BCMA on cell surface of BCMA-positive cells (NCI-H929; RPMI-8226) (UniProt Q02223); assay: flow cytometry on NCI-H929 cells, control without nanobody
[2] = biological target: Cyno BCMA-His antigen (cyno (monkey)); assay: phage ELISA, antigen coated 100 ng/well, Anti-M13 HRP
[3] = biological target: Human BCMA-His recombinant protein (human) (UniProt Q02223); assay: as above
[4] = biological target: T1, Human BCMA-His recombinant protein (human, UniProt Q02223 1-54); assay: ELISA, Human-BCMA-His coated 200 ng/well
T1 construct: Supplied reagent (Chengdu Shengshi Junlian Biotechnology, Cat# BCA-H522y); also called Cat# BCA-H522y; not shown: His tag
T1 sequence (looked up): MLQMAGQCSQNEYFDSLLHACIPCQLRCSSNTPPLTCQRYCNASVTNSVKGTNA

[5] = biological target: T1, Human BCMA-His recombinant protein; assay: ELISA, Human BCMA His coated 200 ng/well, anti-human Fc HRP
[6] = biological target: BCMA on cell surface of BCMA-positive cells (NCI-H929; RPMI-8226) (UniProt Q02223); assay: flow cytometry on NCI-H929 cells, antibody 10 ug/mL
[7] = biological target: BCMA on cell surface of BCMA-positive cells (NCI-H929; RPMI-8226) (UniProt Q02223); assay: flow cytometry on NCI-H929 cells, antibody 10 ug/ml, PE anti-human Fc

Sequence of Cyno BCMA-His antigen (cyno (monkey)) (chain, as listed by the source): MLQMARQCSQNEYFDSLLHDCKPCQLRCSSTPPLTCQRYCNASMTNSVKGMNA

Work on hIgG Fc-PE (antibody) yielded an NCI-H929 Positive Rate% [1] of 0.04%.

B1: BC-HC-15 (positive phage clone, VHH displayed on phage) (VHH)
VHH: EVQLVQSGGGSVQAGGSLRLSCAASGGDISSTFMGWFRQAPGKEREGVAAIYTGDGTTDYADSVKGRFTIAQDNAKNTVYLEMSRLKPEDTALYYCATGLDGSGSVFSPRSFRYWGQGTQVTVSS
With B1 the OD (phage ELISA, monkey) [2] was 1.79 OD450 and the OD (phage ELISA, human) [3] was 2.11 OD450.

B2: BC-HC-15 nanobody, recombinant VHH-hIgG1Fc antibody (Fc fusion)
chain: EVQLVQSGGGSVQAGGSLRLSCAASGGDISSTFMGWFRQAPGKEREGVAAIYTGDGTTDYADSVKGRFTIAQDNAKNTVYLEMSRLKPEDTALYYCATGLDGSGSVFSPRSFRYWGQGTQVTVSS
notes: also called VHH-hFC; not shown: human IgG1 Fc (hIgG1Fc) from the pVHH-hIgG1Fc expression plasmid
B2 was tested, and the EC50 [4] was less than 10 nM, the EC50 [5] was 0.605 µg/mL and 7.57 nM and the positive binding rate [6] was greater than 95%. The NCI-H929 Positive Rate% [7] was 99.9%.

— patent publication EP4806919A1 (Cells & Genes Biotech (Shanghai) Co., Ltd, dated 2026)
